The target in assay [1] is T1, human insulin-like growth factor II (IGF-II) (human, UniProt P01344 25-91).
T1 construct: also called biotinylated IGF-II
Description: ELISA, serial dilutions of IgG on coated IGF-II, detected with HRP anti-human Fc antibody.

Assay [2] has as its target T2, recombinant human insulin-like growth factor I (IGF-I) (human, UniProt P05019 49-118).
T2 construct: coated or coupled to a CM5 chip in ELISA and Biacore; also called biotinylated IGF-I
Description: ELISA, serial dilutions of IgG on coated IGF-I, detected with HRP anti-human Fc antibody. On the technique in general: An ELISA detects its analyte on a solid surface through an enzyme-linked reagent.

Assay [3] deals with T1, human insulin-like growth factor II …. Description: ELISA on coated IGF-II after incubation of the antibody with an equal volume of human serum at 37 C for 0 to 9 days.
Assay [4] addresses T2, recombinant human insulin-like growth …. Briefly: ELISA on coated IGF-I after incubation of the antibody with an equal volume of human serum at 37 C for 0 to 9 days.
Assay [5] shares this target. Briefly: Biacore, IgG1 format (effective KD, avidity). In general terms: In SPR one partner is held on a chip, and binding of the other changes the refractive index at the surface.
The target of assay [6] is T1, human insulin-like growth factor II …. Briefly: Biacore, IgG1 format (effective KD, avidity).
Assay [7] concerns the target T2, recombinant human insulin-like growth …. Briefly: cell-based or functional assay.
Assay [8] has as its target T1, human insulin-like growth factor II …. Briefly: cell-based or functional assay.
The target of the next assay is human insulin (human). Briefly: ELISA, 10 nM IgG on coated human insulin, detected with HRP anti-human Fc antibody.
human insulin (human), sequence (chain, as listed by the source limits assumed, chain 1 of 2): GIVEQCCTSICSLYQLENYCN
human insulin (human), sequence (chain, as listed by the source limits assumed, chain 2 of 2): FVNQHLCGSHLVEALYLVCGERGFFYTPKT
Assay [9] concerns the target T2, recombinant human insulin-like growth …. Briefly: Biacore, IgG1 format.
Assay [10] addresses T1, human insulin-like growth factor II …. Description: Biacore, IgG1 format.
The target of assay [11] is T2, recombinant human insulin-like growth …. Briefly: Biacore X100, antigen immobilized on CM5, soluble scFv injected.
The target of assay [12] is T1, human insulin-like growth factor II …. The description is as above.
The target in assay [13] is T2, recombinant human insulin-like growth …. Briefly: FACS titration of yeast-displayed scFv with biotinylated antigen.
Assay [14] has as its target T1, human insulin-like growth factor II …. The assay is described as above.
Assay [15] addresses T2, recombinant human insulin-like growth …. The description is as above. The source holds these as a separate data set.
In assay [16] the target is T1, human insulin-like growth factor II …. The description is as above. This is another data set of the same source.
The target in assay [17] is T2, recombinant human insulin-like growth …. Description: ELISA on coated IGF-I after incubation of the antibody with an equal volume of human serum at 37 C for 0 to 9 days. This is another data set of the same source.
For assay [18], the target named is T1, human insulin-like growth factor II …. Description: ELISA on coated IGF-II after incubation of the antibody with an equal volume of human serum at 37 C for 0 to 9 days. The source holds these as a separate data set.

Where a chain is given by its changes, count along the chain named. Some results are limits rather than exact numbers.

T2 sequence (P05019 49-118 limits assumed): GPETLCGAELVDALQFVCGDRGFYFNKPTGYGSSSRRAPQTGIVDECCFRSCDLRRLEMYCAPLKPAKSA
T1 sequence (P01344 25-91): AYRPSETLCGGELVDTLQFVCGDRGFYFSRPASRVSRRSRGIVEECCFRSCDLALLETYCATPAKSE

B1: IgG1 m708.5 (antibody, V domains shown)
VH: QVQLQQLGAEVKMPGSSVKVSCKASGGTFSSYAISWVRQAPGQGLEWMGGIIPTLGIVKYAQKFQGRVTITADKSTSTAYMELSSLGSEDTAVYYCAGGPRGYSYNFDNWGQGTLVTVSS
VL: DIQMTQSPSSLSASVGDRVTIVCRASQTISRYVNWYQQKPGKAPKLLIYAASSLQSGVSSRFSGSGSGTEFALTISSLQPEDFATYFCQQTYSPPITFGQGTRLEIKQ
notes: Human IgG1, converted from the scFv in vector pDR12 and expressed in 293 FreeStyle cells; also called m708.5 IgG; IgG m708.5
One may read the EC50 (read off the curve) as the concentration at which the effect is half-maximal. On to B1, for which the “EC50 (read off the curve)” value was roughly 0.1 nM in assay [1], roughly 0.4 nM in assay [2], roughly 2 nM in [3] and roughly 2 nM in assay [4]. For the same molecule, the Kd in assay [5] and in assay [6] was less than 0.001 nM in each case. The “growth inhibition of MCF-7 cells (MTS, 3 days; 2.5 nM IGF-I and 2.5 nM IGF-II added)” value in assay [7] and in assay [8] was greater than 40 nM throughout. In addition, the binding result with human insulin is recorded as “no binding (tested: 10 nM)”. In addition, the figures for the “fold change of effective KD against the scFv” value in assay [9] and in assay [10] were 1000 fold and 60 fold, respectively.

B2: IgG1 m708.2 (antibody, V domains shown)
VH: B1 VH with L7P, M13K, T54I, V58A, K59N, K74E, G87R, G98R, N109Y
VL: B1 VL with V22A, V33L, A72T, Q108R
notes: Human IgG1 (pDR12, 293 FreeStyle cells); also called IgG m708.2; IgG708.2
For the molecule B2, the “EC50 (read off the curve)” value in assay [2] was roughly 3 nM. Moreover, the “IGF-I-induced (1 nM) phosphorylation of IGF-IR in MCF-7 cells, immunoblot” value in assay [7] amounted to 10 nM. Moreover, the “growth inhibition of MCF-7 cells (MTS, 3 days; 2.5 nM IGF-I and 2.5 nM IGF-II added)” value in [7] and in [8] was greater than 80 nM throughout.

B3: m708.5 scFv (scFv, V domains shown)
VH: B1 VH
VL: B1 VL
notes: One-chain scFv; also called scFv m708.5
For orientation: koff means the rate constant with which the complex falls apart. By kon is commonly meant the second-order rate constant of association. Regarding B3, the Kd in assay [11] was 0.2 nM; in [12], 0.061 nM; in assay [15], 0.1 nM; in assay [16], 0.041 nM. In addition, the off-rate constant (koff) in [11] worked out at 0.00028 s⁻¹; in assay [12], 0.00025 s⁻¹. Also, the figures for the kon in assay [11] and in [12] were 1.4e+06 M⁻¹ s⁻¹ and 4.1e+06 M⁻¹ s⁻¹, respectively. The “fold improvement of affinity against m708.2” value in assay [13] is 39 fold; in assay [14], 27 fold.

B4: m708.2 scFv (scFv, V domains shown)
VH: B1 VH with L7P, M13K, T54I, V58A, K59N, K74E, G87R, G98R, N109Y
VL: B1 VL with V22A, V33L, A72T, Q108R
notes: One-chain scFv; Biacore on the isolated soluble scFv from pComb3x
Take B4: the Kd in assay [11] amounted to 2.2 nM; in assay [12] it was 1.8 nM; in [15], 3.9 nM; in assay [16], 1.1 nM. The koff in assay [11] came out at 0.0024 s⁻¹; in assay [12] it was 0.0004 s⁻¹. In addition, the kon was 1.1e+06 M⁻¹ s⁻¹ in assay [11] and 230000 M⁻¹ s⁻¹ in [12].

B5: bispecific antibody m67 (bispecific antibody)
chain 1: QVQLVQSGAEVKKPGASVKVSCKASGYTFTSYYMHWVRQAPGQGLEWMGIINPSGGSTSYAQKFQGRVTMTRDTSTSTVYMELSRLRSDDTAVYYCARDVQWLAYGMDVWGQGTTVTVSS
chain 2: DIQMTQSPSSLSASVGDRVTITCRASQSISSYLNWYQQKPGRAPDLLINAASSLQSGVPSRFSGSGSGTDFTLTISSLQPEDFATYFCQQSYSLPFTFGGGTKVEIK
chain 3: B1 VH
chain 4: B1 VL
Turning to B5, the 50% effective concentration (EC50 (read off the curve)) in [17] is roughly 1 nM; in assay [18], roughly 3 nM.

These data come from US20160024199A1 (US Dept. of Health and Human Services, published 2016).
